B1: Emerin (Homo sapiens), P50402 (parent)
chain: MDNYADLSDTELTTLLRRYNIPHGPVVGSTRRLYEKKIFEYETQRRRLSPPSSSAASSYSFSDLNSTRGDADMYDLPKKEDALLYQSKGYNDDYYEESYFTTRTYGEPESAGPSRAVRQSVTSFPDADAFHHQVHDDDLLSSSEEECKDRERPMYGRDSAYQSITHYRPVSASRSSLDLSYYPTSSSTSFMSSSSSSSSWLTRRAIRPENRAPGAGLGQDRQVPLWGQLLLFLVFVIVLFFIYHFMQAEEGNPF

The variants in this experiment derive from B1. The settings on record: with bclf1_human BCLAF1, Q9NYF8.
Chain of bclf1_human BCLAF1, Q9NYF8 (Q9NYF8 whole entry): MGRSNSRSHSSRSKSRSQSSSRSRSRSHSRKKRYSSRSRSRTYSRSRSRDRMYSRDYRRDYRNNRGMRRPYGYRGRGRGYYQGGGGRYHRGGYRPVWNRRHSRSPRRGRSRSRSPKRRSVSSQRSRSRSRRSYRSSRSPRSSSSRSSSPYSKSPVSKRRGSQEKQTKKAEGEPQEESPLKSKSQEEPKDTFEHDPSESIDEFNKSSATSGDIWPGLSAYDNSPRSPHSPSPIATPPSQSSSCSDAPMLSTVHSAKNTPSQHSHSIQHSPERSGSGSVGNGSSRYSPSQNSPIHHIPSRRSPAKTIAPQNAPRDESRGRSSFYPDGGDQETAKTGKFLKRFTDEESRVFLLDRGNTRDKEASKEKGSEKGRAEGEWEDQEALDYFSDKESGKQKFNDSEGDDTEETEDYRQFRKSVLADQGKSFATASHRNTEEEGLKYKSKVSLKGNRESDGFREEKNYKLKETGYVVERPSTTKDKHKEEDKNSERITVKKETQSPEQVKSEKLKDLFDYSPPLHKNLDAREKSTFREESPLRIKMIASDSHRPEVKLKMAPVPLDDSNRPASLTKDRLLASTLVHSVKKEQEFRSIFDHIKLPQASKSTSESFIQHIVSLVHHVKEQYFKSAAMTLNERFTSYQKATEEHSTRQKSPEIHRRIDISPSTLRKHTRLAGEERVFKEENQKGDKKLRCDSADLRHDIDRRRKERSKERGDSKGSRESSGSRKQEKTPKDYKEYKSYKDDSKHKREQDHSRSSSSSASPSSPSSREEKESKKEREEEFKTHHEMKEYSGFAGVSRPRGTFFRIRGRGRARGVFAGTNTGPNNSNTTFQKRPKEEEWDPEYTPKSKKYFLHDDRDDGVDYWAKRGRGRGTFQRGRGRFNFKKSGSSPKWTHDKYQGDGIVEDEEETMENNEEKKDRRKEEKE
On to G214A;L217A, for which the “effect of a mutation on the interaction” value is listed as “decreasing interaction”.

In the case of I206A;R207A;E209A, the “effect of a mutation on the interaction” value is given as “decreasing interaction”.

As to D70A;D72A;Y74A, the “effect of a mutation on the interaction” value is “decreasing interaction”.

For L76A;K78A;E80A;L83A, the “effect of a mutation on the interaction” value is “decreasing interaction”.

In the case of R45A;R46A;R47A, the “effect of a mutation on the interaction” value was “decreasing interaction”.

Consider S192A;S194A;S195A;S196A, for which the “effect of a mutation on the interaction” value is “decreasing interaction”.

Take R207A;P208A: the “effect of a mutation on the interaction” value is given as “decreasing interaction”.

Regarding S54F, the “effect of a mutation on the interaction” value was “decreasing interaction”.

As for S175A;S176A, the “effect of a mutation on the interaction” value is recorded as “decreasing interaction”.

For the variant S197A;S198A, the “effect of a mutation on the interaction” value is “decreasing interaction”.

(Values after IntAct's records for PubMed 15009215.)
